# Measured values reported in patent US20210340273A1 (INHLBRX, published 2021).
# Changes are numbered by the printed parent chain.
# T1: human 5T4 (trophoblast glycoprotein), endogenous on the cell surface (human, UniProt Q13641 32-420)
# T1 construct: also called TPBG; 5T4 oncofetal antigen
# T1 sequence: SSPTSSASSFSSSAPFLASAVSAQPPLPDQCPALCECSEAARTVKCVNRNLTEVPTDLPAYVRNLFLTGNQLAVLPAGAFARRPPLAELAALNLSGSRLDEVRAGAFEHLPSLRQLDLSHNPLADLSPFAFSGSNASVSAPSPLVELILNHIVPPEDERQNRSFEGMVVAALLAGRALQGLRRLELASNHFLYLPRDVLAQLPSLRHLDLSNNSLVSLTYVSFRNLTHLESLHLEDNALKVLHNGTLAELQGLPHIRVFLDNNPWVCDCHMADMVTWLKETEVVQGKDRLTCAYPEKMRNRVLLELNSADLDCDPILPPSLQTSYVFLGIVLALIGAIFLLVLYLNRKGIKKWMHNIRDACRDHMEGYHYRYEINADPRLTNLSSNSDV
# B1: cx3253, 5T4-targeted constrained CD3 engaging construct with a 41BB binding domain (bispecific antibody)
# chain 1: QVQLVQSGGGLVQAGGSLRLSCAASRRPFSSKTMAWFRQTPGKEREFVAAVRWIGGATRYTDSVKGRFSISKDNAINTVYLQMNSLKSEDTAVYYCAAGQAWGTKFTDYSDWGQGTQVTVKPDKTHTCPPCPAPELLGGPSVFLFPPKPKDTLMISRTPEVTCVVVDVSHEDPEVKFNWYVDGVEVHNAKTKPREEQYNSTYRVVSVLTVLHQDWLNGKEYKCKVSNKALPAPIEKTISKAKGQPREPQVYTLPPCRDELTKNQVSLWCLVKGFYPSDIAVEWESNGQPENNYKTTPPVLDSDGSFFLYSKLTVDKSRWQQGNVFSCSVMHEALHNHYTQKSLSLSPTGGSGGGGIEPDIGGSGGSEVQLVESGGGLVQPGGSLRLSCAASGFTFNTYAMNWVRQAPGKCLEWVARIRSKYNNYATYYADSVKGRFTISRDDAKNTLYLQMSSLRAEDTAVYYCVRHGNFGNSYVSWFAYWGQGTLVTVKPQVQLVQSGGGLVQAGASLRLSCVASGRTRSLRTMAWFRQAPGKERIFVAAISWRSDSTYYADSVKGRFTISRDNAKNTAYLQMNTLKPEDTAVYYCAAGGGWLATTPDEYTYWGQGTLVTVKP
# chain 2: not shown
# notes: Heterodimeric multispecific construct (5T4 x CD3 x 41BB)
# B2: cx3499, 5T4-targeted constrained CD3 engaging construct with a 41BB binding domain (bispecific antibody)
# chain 1: QVQLVQSGGGLVQAGGSLRLSCAASRRPFSSKTMAWFRQTPGKEREFVAAVRWIGGATRYTDSVKGRFSISKDNAINTVYLQMNSLKSEDTAVYYCAAGQAWGTKFTDYSDWGQGTQVTVKPDKTHTCPPCPAPELLGGPSVFLFPPKPKDTLMISRTPEVTCVVVDVSHEDPEVKFNWYVDGVEVHNAKTKPREEQYNSTYRVVSVLTVLHQDWLNGKEYKCKVSNKALPAPIEKTISKAKGQPREPQVYTLPPCRDELTKNQVSLWCLVKGFYPSDIAVEWESNGQPENNYKTTPPVLDSDGSFFLYSKLTVDKSRWQQGNVFSCSVMHEALHNHYTQKSLSLSPTGGSGGGGIEPDIGGSGGSEVQLVESGGGLVQPGGSLRLSCAASGFTFNTYAMNWVRQAPGKCLEWVARIRSKYNNYATYYADSVKGRFTISRDDAKNTLYLQMSSLRAEDTAVYYCVRHGNFGNSYVSWFAYWGQGTLVTVKPQVQLVQSGGGLVQAGDSLTLSCAVSERPFGTYAMGWFRQAPGRERDLVAAVSRNGGASQYGDSVKGRFSISRDNIKNTMYLQMNSLKPEDTAVYYCAARSAAYSRSSEVYTGKDEYYYWGQGTQVTVKP
# chain 2: not shown
# notes: as for B1
# B3: hz12E9v5 sdAb-Fc (Fc fusion)
# chain: EVQLVESGGGEVQPGGSLRLSCAASRRPFSSKTMAWFRQAPGKEREFVAAVRWIGGATRYTESVKGRFTISRDNAKNTLYLQMSSLRAEDTAVYYCAAGQAWGTKFTDYSDWGQGTLVTVKP
# notes: Humanized variant of 12E9, linked to a human Fc; not shown: human Fc
# B4: hz12E9v7 sdAb-Fc (Fc fusion)
# chain: B3 chain with E62D, T69S, R72K, L79V
# notes: as for B3
# B5: hz12E9v8 sdAb-Fc (Fc fusion)
# chain: B3 chain with T61A, K76I, L79V, S84N, R87K, A88S
# notes: as for B3
# B6: 14B5 sdAb-Fc (Fc fusion, not shown: a dimerising Fc or GST)
# chain: QVQLVQSGGGLVQAGDSLTLSCAVSERPFGTYAMGWFRQAPGRERDLVAAVSRNGGASQYGDSVKGRFSISRDNIKNTMYLQMNSLKPEDTAVYYCAARSAAYSRSSEVYTGKDEYYYWGQGTQVTVKP
# notes: Camelid derived sdAb tested as sdAb-Fc; also called L14B5
# B7: cx3497, 5T4-targeted constrained CD3 engaging construct with a 41BB binding domain (bispecific antibody)
# chain 1: QVQLVQSGGGLVQAGGSLRLSCAASRRPFSSKTMAWFRQTPGKEREFVAAVRWIGGATRYTDSVKGRFSISKDNAINTVYLQMNSLKSEDTAVYYCAAGQAWGTKFTDYSDWGQGTQVTVKPDKTHTCPPCPAPELLGGPSVFLFPPKPKDTLMISRTPEVTCVVVDVSHEDPEVKFNWYVDGVEVHNAKTKPREEQYNSTYRVVSVLTVLHQDWLNGKEYKCKVSNKALPAPIEKTISKAKGQPREPQVYTLPPCRDELTKNQVSLWCLVKGFYPSDIAVEWESNGQPENNYKTTPPVLDSDGSFFLYSKLTVDKSRWQQGNVFSCSVMHEALHNHYTQKSLSLSPTGGSGGGGIEPDIGGSGGSEVQLVESGGGLVQPGGSLRLSCAASGFTFNTYAMNWVRQAPGKCLEWVARIRSKYNNYATYYADSVKGRFTISRDDAKNTLYLQMSSLRAEDTAVYYCVRHGNFGNSYVSWFAYWGQGTLVTVKPQVQLLQSGGGLVQAGGSLILSCAVSGRPFSSSAMGWFRQAPGKERETVAAVSRNGGSSYYADFVKGRFTISRDNDKNTVYLQMNSLKPEDTAVYYCAARSAAYSRSSETYTEKHDYTYWGQGTQVTVKP
# chain 2: not shown
# notes: as for B1
# B8: 12E9 sdAb-Fc (Fc fusion, not shown: a dimerising Fc or GST)
# chain: QVQLVQSGGGLVQAGGSLRLSCAASRRPFSSKTMAWFRQTPGKEREFVAAVRWIGGATRYTDSVKGRFSISKDNAINTVYLQMNSLKSEDTAVYYCAAGQAWGTKFTDYSDWGQGTQVTVKP
# notes: Camelid derived sdAb tested as sdAb-Fc; also called L12E9; 12E9-Fc
# Experiments:
# [1] = biological target: T1, human 5T4 (trophoblast glycoprotein), …; test: printed as Affinity 5T4; apparent affinity from flow cytometry titration on Ovcar-5 cells
# Description: Binding of exemplary 5T4-targeting constrained CD3 engaging constructs set forth in Table E3 to CD3 on the surface of primary T cells and 5T4 expressing cells (Ovcar-5) was assessed by flow cytometry. The T cells were primary T-cells that were negatively enriched from PBMCs isolated from healthy human donor leukopaks. Bound construct was detected with fluorophore-conjugated secondary antibodies specific for the human Fc (anti-human IgG APC secondary antibody) and binding was measured by flow cytometry. Cells incubated with secondary antibody only served as negative controls. The results, from flow cytometry histograms displaying normalized cell counts versus fluorescence at 200 nM of each construct, are shown in FIG. 4A (cx3253), FIG. 4B (cx3264), FIG. 4C (cx3497), FIG. 4D (cx3499), FIG. 4E (cx3547), FIG. 4F (cx3546), FIG. 4G (cx4224), FIG. 4H (cx4913), FIG. 4I (cx3265), […] (cx4912), FIG. 4K (cx3262), FIG. 4L (cx4911), and FIG. 4M (cx4910). […] However, as shown in the top right and bottom panels of each of the figures, the same constructs were not able to bind to T cells in isolation.
# Table E4 summarizes the affinity of exemplary molecules for 5T4 or CD3, as determined from flow cytometry, in these studies.
# [2] = biological target: T1, human 5T4 (trophoblast glycoprotein), …; test: flow cytometry on 5T4-positive OVCAR5 (Ovcar-5) cells, anti-human IgG secondary; titration
# Description: FIGS. 4A-4M depict the binding of various 5T4-target constrained CD3 engaging constructs to the 5T4 positive Ovcar-5 cell line (top left) and the lack of binding to primary human T-cells (top right). […] Binding was assessed by flow cytometry using an anti-human IgG APC secondary antibody. The histograms display the normalized cell counts vs fluorescence at 200 nM of each construct.
# Binding of exemplary 5T4-targeting constrained CD3 engaging constructs set forth in Table E3 to CD3 on the surface of primary T cells and 5T4 expressing cells (Ovcar-5) was assessed by flow cytometry. The T cells were primary T-cells that were negatively enriched from PBMCs isolated from healthy human donor leukopaks. Bound construct was detected with fluorophore-conjugated secondary antibodies specific for the human Fc (anti-human IgG APC secondary antibody) and binding was measured by flow cytometry. Cells incubated with secondary antibody only served as negative controls. […] The results, from flow cytometry histograms displaying normalized cell counts versus fluorescence at 200 nM of each construct, are shown in FIG. 4A (cx3253), FIG. 4B (cx3264), FIG. 4C (cx3497), FIG. 4D (cx3499), FIG. 4E (cx3547), FIG. 4F (cx3546), FIG. 4G (cx4224), FIG. 4H (cx4913), FIG. 4I (cx3265), […] (cx4912), FIG. 4K (cx3262), FIG. 4L (cx4911), and FIG. 4M (cx4910). […]
# [3] = biological target: T1, human 5T4 (trophoblast glycoprotein), …; test: flow cytometry (FL4H median), sdAb-Fc titrated on 5T4-positive T47D cells
# Description: (§1) Specificity and relative affinity were assessed for purified sdAb-Fcs on 5T4-expressing cells. Binding of 5T4-sdAb-Fc fusion proteins was assessed by flow cytometry using 5T4-expressing cells. A titration series of the fusion protein was incubated with the 5T4-expressing cell lines (approximately 2.5×10⁴ to 5×10⁴ cells/well) for 30 minutes at 4 degrees Celsius in FACS Buffer (PBS 1% BSA, 0.1% NaN₃ pH 7.4) in 96 well plates. Following three wash steps in FACS buffer, an APC-conjugated anti-human Fcγ specific secondary antibody (Jackson ImmunoResearch) was added and incubated for 30 minutes at 4 degrees Celsius. Following three additional wash steps in FACS buffer bound antibody was detected via flow cytometry (IQue Intellicyte).
# (§2) Humanized variant of the 5T4 sdAbs were tested for their ability to bind 5T4 expressing cells substantially as described in Example 2, and binding was compared to the parental sdAb. 5T4 expressing T47D cells were used in these studies. Results are shown in FIGS. 2A-2F, which confirm binding of the humanized variants. In some cases, binding was increased compared to the parental sdAb.
# [4] = biological target: T1, human 5T4 (trophoblast glycoprotein), …; test: as above; remark: listed apart in the source
# Description: as §1, §2
# [5] = biological target: T1, human 5T4 (trophoblast glycoprotein), …; test: as above; remark: listed apart in the source
# Description: as §1, §2
# [6] = biological target: T1, human 5T4 (trophoblast glycoprotein), …; test: flow cytometry (FL4), sdAb-Fc titrated on HEK-293 freestyle (293FS) cells endogenously expressing 5T4
# Description: FIGS. 1A-B depict the ability of various single domain antibodies targeting 5T4 to bind cell surface 5T4. Binding was assessed by flow cytometry on HEK-293 freestyle cells endogenously expressing 5T4.
# as §1
Binder,Kd [1] [nM],EC50 (read off the curve) [3] [nM],further results
B1,0.12,,
B2,0.653,,EC50 (read off the curve) [2]: ~0.7 nM
B3,,~0.1,
B4,,~0.1,
B5,,~0.1,
B6,,,EC50 (read off the curve) [4]: ~0.4 nM; EC50 (read off the curve) [5]: ~0.8 nM; EC50 (read off the curve) [6]: ~0.5 nM
B7,0.646,,EC50 (read off the curve) [2]: ~0.7 nM
B8,,~0.1,EC50 (read off the curve) [4]: ~0.2 nM; EC50 (read off the curve) [6]: ~0.1 nM
